This passage reports stoichiometry N results from paper PMC3262836.

In general, stoichiometry N refers to the number of molecules, sites or subunits per partner or assembly.

This assay deals with Archeoglobus fulgidus HypB (A. fulgidus). The experiment in a line: SEC-MALS; SEC/LS, Superdex-75 HR10/30, 100 uL at 3 mg/mL, with 1 mM GMPPNP (GTP analog), 50 mM Tris pH 7.5, 0.1 M NaCl, 5 mM MgCl2, 1 mM TCEP, room temperature; monomer to dimer. Background: Size exclusion chromatography separates by hydrodynamic size, large species first.

Take “Archeoglobus fulgidus HypB (natural protein)”: the stoichiometry N stood at 2.
